Test results: the supplement of paper PMC9170038

System: MS2 coat protein
Test: apparent KD of MS2 coat protein; designed switch direction (-1 OFF switch, 1 ON switch): -1; higher = weaker reporter binding
Procedure, shortened: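 Designed RNA switches sharing common flanks were transcribed on Illumina chips by stalled E. coli RNA polymerase. They were titrated with SNAP-549-labelled MS2 coat protein, from 0.7 or 1.5 nM doubling to 3 µM, in Tris-HCl pH 7.5 buffer with KCl, MgCl2, BSA, DTT, tRNA and Tween-20. Titrations ran without input, with 200 uM small-molecule ligand, or with an oligonucleotide input. The apparent KD of each design is the median over its clusters, after curve-fitting of normalised cluster fluorescence.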

[1] = Eterna round: R95, input ligand: microRNA oligo, concentration not stated
[2] = input ligand: microRNA oligo, concentration not stated
[3] = Eterna round: R95, input ligand: FMN 200 uM
[4] = Eterna round: R95, input ligand: none

Sequence	apparent KD of MS2 coat protein (input ligand: FMN 200 uM)	apparent KD of MS2 coat protein (input ligand: none)	apparent KD of MS2 coat protein [1]	apparent KD of MS2 coat protein [2]	apparent KD of MS2 coat protein [3]	apparent KD of MS2 coat protein [4]
UUCAGGCGAGGAUAUCCAUGAAGUAACAUGAGGAUCACCCAUGUUCGCUGUUACUCCGAAGGAGAAGGUGCUCUGG [Eternabot (L2) Solution 25] (Eterna round: R97, puzzle: Exclusion 5)	196 nM	100 nM	–	–	–	–
UUCAUGUGAGGAUAUAGUACUCCUUCUAUUAUUUUUGAGUAUUAGAAGGCACAUGAGGAUCACCCAUGUAGUAC [Ex4 - 3 - 39] (puzzle: Exclusion 4)	–	–	24.6 nM	–	–	–
UUCAUGUGAGGAUAUUAGUAGUAAAUGAAUAAAAUUAUUACUGAGAAGGUACAUGAGGAUCACCCAUGUUCCUU [Mat - Exclusion 4 - Eli Mod - D21] (Eterna round: R97, puzzle: Exclusion 4)	20.1 nM	14.6 nM	–	–	–	–
UUCCUCAUAACAUGAGGAUCACCCAUGUAUUAUUUGAUAACUGAGGAUAUACUAAUAAUGUUUAUGUAGAAGGCAGAUACAGAU [JR_ExcNG3_Sub015] (Eterna round: R96, puzzle: Exclusion NG 3)	623 nM	59.1 nM	–	69.1 nM	–	–
UUCCUGUCAGGAUAUGACUAGAGGCACGAAAGUGUGUUUAGUUAGAAGGGACAUGAGGAUCACCCAUGUAGUCC [Bring Us a Shrubbery-20] (puzzle: Exclusion 4)	–	–	21.9 nM	–	–	–
UUCGCAAAAUUAGGUCCUAACAUGAGGAUCACCCAUGUUCUAGGUAAGUGCCUCCGCCCGCUAACUGUUCGUCUUGU [Eternabot (L1) Solution 36] (Eterna round: R97, puzzle: Sensor, turn-off variant 1)	23.1 nM	24.9 nM	–	–	–	–
UUCUGCACGCUGCGGUCCUACAUGAGGAUCACCCAUGUGGUCUGGUGGCGUGGGUCGCCGGACUUGGCUCGUCUUGA [salish99_S_TOV1_R5_044] (Eterna round: R97, puzzle: Sensor, turn-off variant 1)	18.2 nM	19.1 nM	–	–	–	–
UUCUGCACGCUGCGGUCCUACAUGAGGAUCACCCAUGUGGUCUGGUGGCGUGGGUCGCCGGACUUGGCUCGUCUUGG [salish99_S_TOV1_R5_049] (Eterna round: R97, puzzle: Sensor, turn-off variant 1)	15.4 nM	14.9 nM	–	–	–	–
UUGAAGAUAGGAUAUACGAGGAGAGGAGAGAGAAGGUGAGGACAUGAGGAUCACCCAUGUAGAAGGAUCAGGAG [JR_Exclu2_Sub066] (puzzle: Exclusion 2)	–	–	86.9 nM	–	66.1 nM	84.9 nM
UUGAUGUCAUCAGGAUAUAGUAUUUAAGACAUAUCUUCUUUCAAACAUGAGGAUCACCCAUGUCGCUAGAAGGGAUGAAUGAUU [JR_ExcNG2_Sub085] (Eterna round: R96, puzzle: Exclusion NG 2)	–	–	–	12.1 nM	–	–
UUGAUUCAUGUAGGAUAUGCGUGGCGAAGCUAUGCAGAAGGACAUGAGGAUCACCCAUGUGCUUGCGUCCGCGUACGGAUGCUA [JL ENG1 1.23] (Eterna round: R96, puzzle: Exclusion NG 1)	154 nM	165 nM	–	107 nM	–	–
UUGCAGUCGUCAGGAUAUAGUAUUACGGCCAUUUAUAUUUUCAUACAUGAGGAUCACCCAUGUCGCUAGAAGGGAUUAUCGAUU [salish99_ExNG2_r04_101] (Eterna round: R96, puzzle: Exclusion NG 2)	49.7 nM	53.4 nM	–	40.4 nM	–	–
UUGCAGUCGUCAGGAUAUAGUAUUACGGCCAUUUAUUUUUUCAUACAUGAGGAUCACCCAUGUCGCUAGAAGGGAUUAUCGAUU [salish99_ExNG2_r04_102] (Eterna round: R96, puzzle: Exclusion NG 2)	–	–	–	38.9 nM	–	–
UUGCGCUGAGGAUAUAUAACCGAUGACAUGAGGAUCACCCAUGUGGAUACAAGGGACUGAAUAGAAGGUAGCCAGA [Eternabot (L1) Solution 69] (Eterna round: R97, puzzle: Exclusion 5)	42.4 nM	79.9 nM	–	–	–	–
UUGGUUAUCCAUGGAAGUAACAUGAGGAUCACCCAUGUAUGUCUAGUUUUUUGUUCGUCAUAGGCCUUUUGUUUGGA [JR_SV3TOV1_Sub022] (puzzle: Sensor v3, turn-off variant 1)	–	–	27.9 nM	–	26.8 nM	30.9 nM
UUGGUUAUCUAUGGGAGUAACAUGAGGAUCACCCAUGUAUGUCUUGUUUUUUGUUCGUCAUAGGCCUUUUGUUUGGA [JR_SV3TOV1_Sub024] (puzzle: Sensor v3, turn-off variant 1)	–	–	35 nM	–	28.6 nM	29.8 nM

Sequence	apparent KD of MS2 coat protein (input ligand: FMN 200 uM)	apparent KD of MS2 coat protein (input ligand: none)	apparent KD of MS2 coat protein [1]	apparent KD of MS2 coat protein [2]	apparent KD of MS2 coat protein [3]	apparent KD of MS2 coat protein [4]
UUGGUUGUGGUAGGAUAUCCGUUGGAAACCGUCGGAGAAGGACCACAGUCACUGGGUCUUUGUCUGGUGGACUGGAAUCACCAU [pwkr exNG1 F6.21] (Eterna round: R96, puzzle: Exclusion NG 1)	295 nM	224 nM	–	157 nM	–	–
UUGGUUGUGGUAGGAUAUCCGUUGGAAACUGUUGGAGAAGGACCACAGUCACUGGGUCCUUCUUUGGUGGAGUGGAAGAACCAU [pwkr exNG1 F6.17] (Eterna round: R96, puzzle: Exclusion NG 1)	131 nM	167 nM	–	192 nM	–	–
UUGUAGUCAGGAUAUACAUGAGGAUCACCCAUGUAAAAUUUUAAUUUAAUUUGAAGGUGUAGAAGGGACCAGUU [Ex3 #24] (Eterna round: R97, puzzle: Exclusion 3)	36.5 nM	43.4 nM	–	–	–	–
UUGUGCAAAGGAUAUACGUCCGACCUCGUGGAACUGAGAAUACAUGAGGAUCACCCAUGUAGAAGGUUGCCGAG [Racereus] (puzzle: Exclusion 2)	–	–	10.5 nM	–	–	–
UUGUUAUAUGAAGGAUAUACUUAACAUGAGGAUCACCCAUGUGGUGUUGUGAGUGAGUGAGUUUAGUAGAAGGUCAAUUAUUUU [JMF's solution 29] (Eterna round: R96, puzzle: Exclusion NG 2)	1340 nM	492 nM	–	380 nM	–	–
UUGUUCAGAGGAUAUACAUGAGGAUCACCCAUGUGUUUCAGCUAGGAGACUAGCGAAAGUAGAAGGCUGUACUC [salish99_ex3_r4_016] (Eterna round: R97, puzzle: Exclusion 3)	30.5 nM	25.6 nM	–	–	–	–
UUGUUCCAUGUAGGAUAUGCAUAUUCUUAUUAUGCAGAAGGACAUGAGGAUCACCCAUGUAUGUUAUUAUUAUAUGUUACAUGU [Design 1] (Eterna round: R96, puzzle: Exclusion NG 1)	–	–	–	56.7 nM	–	–
UUGUUGUAUGUAGGAUAUGCGUAUUAUUAUUAUGCAGAAGGACAUGAGGAUCACCCAUGUAUAUUAUUAUUAUAUGUUAUAUAU [Title] (Eterna round: R96, puzzle: Exclusion NG 1)	–	–	–	17.9 nM	–	–
UUGUUGUGUGUAGGAUAUGCAUAUUAUUAUUAUGCAGAAGGACAUGAGGAUCACCCAUGUGUAUUAUUAUUAUAUAUUAUAUAU [Title] (Eterna round: R96, puzzle: Exclusion NG 1)	–	–	–	18.3 nM	–	–
UUUAAAACAUAGGAUAUCGAAAUUAUCAUUUAACGAGAAGGAUGAACAUGAGGAUCACCCAUGUGGUAUCAUGG [Mat - Exclusion 6 - JL Mod - D17] (puzzle: Exclusion 6)	–	–	184 nM	–	202 nM	123 nM
UUUAAUUUUUUUUUUUUACAAGCUUUUUGCUCGUCUUAUACAUGAGGAUCACCCAUGUAAGUGGAGGGUAAAUUAUC [JMF 87] (puzzle: Sensor v3, turn-off variant 2)	–	–	39.4 nM	–	19.4 nM	15.2 nM
UUUAAUUUUUUUUUUUUACAAGCUUUUUGCUCGUCUUAUACAUGAGGAUCACCCAUGUAGAUGGGAAGUAAAUUAUC [JMF 53] (puzzle: Sensor v3, turn-off variant 2)	–	–	200 nM	–	24.7 nM	24.5 nM
UUUAAUUUUUUUUUUUUACAAGCUUUUUGCUCGUCUUAUACAUGAGGAUCACCCAUGUAGGUGAGGGAUAAAUUAUC [JMF 43] (puzzle: Sensor v3, turn-off variant 2)	–	–	150 nM	–	29.1 nM	27.3 nM
UUUAAUUUUUUUUUUUUACAAGCUUUUUGCUCGUCUUAUACAUGAGGAUCACCCAUGUAGGUGGAGGAUAAAUUAUC [JMF 36] (puzzle: Sensor v3, turn-off variant 2)	–	–	56.1 nM	–	23.5 nM	25.5 nM
UUUAAUUUUUUUUUUUUACAAGCUUUUUGCUCGUCUUAUACAUGAGGAUCACCCAUGUAGGUGGAGGGUAAAUUAUC [JMF 90] (puzzle: Sensor v3, turn-off variant 2)	–	–	44.1 nM	–	15.6 nM	13.1 nM
